# According to the supplement of paper PMC10567573:
# B1: ZNF8 (parent)
# chain: RIHTGERPYMCKECGKAFSQNSSL
# Variants of: B1
# Assay: protein stability index of a GFP-peptide fusion (GPS, HEK-293T) (PSI 1-6); higher = more stable
# Conditions: c terminus: a fixed tail appended
# 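Also: lentivirally expressed fusions sorted by FACS into six bins by GFP to DsRed ratio, PSI derived from sequencing read proportions per bin multiplied by bin number.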
row,Variant,protein stability index
1,RIHTGERPWMCKECGKAFSQNSSL [Y9W],2.19
2,RIHTGERPPMCKECGKAFSQNSSL [Y9P],2.48
3,RIHTGERPGMCKECGKAFSQNSSL [Y9G],3.21
4,RIHTGERPTMCKECGKAFSQNSSL [Y9T],2.42
5,RIHTGERPRMCKECGKAFSQNSSL [Y9R],2.02
6,RIHTGERPSMCKECGKAFSQNSSL [Y9S],2.2
7,RIHTGERPIMCKECGKAFSQNSSL [Y9I],2.21
8,RIHTGERPFMCKECGKAFSQNSSL [Y9F],3.21
9,RIHTGERPHMCKECGKAFSQNSSL [Y9H],2.86
10,RIHTGERPQMCKECGKAFSQNSSL [Y9Q],2.75
11,RIHTGERPDMCKECGKAFSQNSSL [Y9D],3.29
12,RIHTGERPNMCKECGKAFSQNSSL [Y9N],2.7
13,RIHTGERPVMCKECGKAFSQNSSL [Y9V],2.71
14,RIHTGERPAMCKECGKAFSQNSSL [Y9A],3.88
15,RIHTGERPKMCKECGKAFSQNSSL [Y9K],1.83
16,RIHTGERPLMCKECGKAFSQNSSL [Y9L],2.43
17,RIHTGERPEMCKECGKAFSQNSSL [Y9E],3.27
18,RIHTGERPMMCKECGKAFSQNSSL [Y9M],2.6
19,RIHTGERPCMCKECGKAFSQNSSL [Y9C],4.27
20,RIHTGERPYMCIECGKAFSQNSSL [K12I],2.17
21,RIHTGERPYMCLECGKAFSQNSSL [K12L],1.72
22,RIHTGERPYMCGECGKAFSQNSSL [K12G],2.38
23,RIHTGERPYMCRECGKAFSQNSSL [K12R],1.99
24,RIHTGERPYMCAECGKAFSQNSSL [K12A],3.12

row,Variant,protein stability index
1,RIHTGERPYMCHECGKAFSQNSSL [K12H],1.96
2,RIHTGERPYMCMECGKAFSQNSSL [K12M],2.52
3,RIHTGERPYMCVECGKAFSQNSSL [K12V],2.07
4,RIHTGERPYMCQECGKAFSQNSSL [K12Q],2.11
5,RIHTGERPYMCWECGKAFSQNSSL [K12W],1.51
6,RIHTGERPYMCSECGKAFSQNSSL [K12S],2.46
7,RIHTGERPYMCFECGKAFSQNSSL [K12F],1.8
8,RIHTGERPYMCCECGKAFSQNSSL [K12C],2.16
9,RIHTGERPYMCTECGKAFSQNSSL [K12T],2.15
10,RIHTGERPYMCEECGKAFSQNSSL [K12E],2.9
11,RIHTGERPYMCDECGKAFSQNSSL [K12D],3.02
12,RIHTGERPYMCNECGKAFSQNSSL [K12N],2.66
13,RIHTGERPYMCYECGKAFSQNSSL [K12Y],2.27
14,RIHTGERPYMCPECGKAFSQNSSL [K12P],2.54
15,RIHTGERPYGCKECGKAFSQNSSL [M10G],2.7
16,RIHTGERPYLCKECGKAFSQNSSL [M10L],2.74
17,RIHTGERPYACKECGKAFSQNSSL [M10A],2.64
18,RIHTGERPYKCKECGKAFSQNSSL [M10K],1.75
19,RIHTGERPYHCKECGKAFSQNSSL [M10H],2.52
20,RIHTGERPYRCKECGKAFSQNSSL [M10R],1.95
21,RIHTGERPYQCKECGKAFSQNSSL [M10Q],3.16
22,RIHTGERPYNCKECGKAFSQNSSL [M10N],2.12
23,RIHTGERPYWCKECGKAFSQNSSL [M10W],2.3
24,RIHTGERPYPCKECGKAFSQNSSL [M10P],2.62

row,Variant,protein stability index
1,RIHTGERPYTCKECGKAFSQNSSL [M10T],3.03
2,RIHTGERPYCCKECGKAFSQNSSL [M10C],3.11
3,RIHTGERPYFCKECGKAFSQNSSL [M10F],2.31
4,RIHTGERPYDCKECGKAFSQNSSL [M10D],2.84
5,RIHTGERPYVCKECGKAFSQNSSL [M10V],2.24
6,RIHTGERPYICKECGKAFSQNSSL [M10I],2.69
7,RIHTGERPYSCKECGKAFSQNSSL [M10S],2.26
8,RIHTGERPYYCKECGKAFSQNSSL [M10Y],2.24
9,RIHTGERPYECKECGKAFSQNSSL [M10E],3.1
10,RIHTLERPYMCKECGKAFSQNSSL [G5L],2.01
11,RIHTSERPYMCKECGKAFSQNSSL [G5S],2.53
12,RIHTWERPYMCKECGKAFSQNSSL [G5W],2.49
13,RIHTKERPYMCKECGKAFSQNSSL [G5K],2.5
14,RIHTQERPYMCKECGKAFSQNSSL [G5Q],2.47
15,RIHTAERPYMCKECGKAFSQNSSL [G5A],2.98
16,RIHTNERPYMCKECGKAFSQNSSL [G5N],2.44
17,RIHTFERPYMCKECGKAFSQNSSL [G5F],2.09
18,RIHTPERPYMCKECGKAFSQNSSL [G5P],3.02
19,RIHTMERPYMCKECGKAFSQNSSL [G5M],2.62
20,RIHTIERPYMCKECGKAFSQNSSL [G5I],1.83
21,RIHTRERPYMCKECGKAFSQNSSL [G5R],2.13
22,RIHTVERPYMCKECGKAFSQNSSL [G5V],2.04
23,RIHTHERPYMCKECGKAFSQNSSL [G5H],2.63
24,RIHTTERPYMCKECGKAFSQNSSL [G5T],2.31

row,Variant,protein stability index
1,RIHTDERPYMCKECGKAFSQNSSL [G5D],2.64
2,RIHTYERPYMCKECGKAFSQNSSL [G5Y],2.73
3,RIHTEERPYMCKECGKAFSQNSSL [G5E],3.37
4,RIHTCERPYMCKECGKAFSQNSSL [G5C],3.78
5,RIHTGEPPYMCKECGKAFSQNSSL [R7P],2.44
6,RIHTGEGPYMCKECGKAFSQNSSL [R7G],3.23
7,RIHTGEYPYMCKECGKAFSQNSSL [R7Y],2.39
8,RIHTGEFPYMCKECGKAFSQNSSL [R7F],2.99
9,RIHTGEMPYMCKECGKAFSQNSSL [R7M],2.77
10,RIHTGELPYMCKECGKAFSQNSSL [R7L],2.65
11,RIHTGECPYMCKECGKAFSQNSSL [R7C],3.77
12,RIHTGETPYMCKECGKAFSQNSSL [R7T],4
13,RIHTGEVPYMCKECGKAFSQNSSL [R7V],2.37
14,RIHTGEQPYMCKECGKAFSQNSSL [R7Q],3.2
15,RIHTGEWPYMCKECGKAFSQNSSL [R7W],2.9
16,RIHTGEHPYMCKECGKAFSQNSSL [R7H],3.36
17,RIHTGENPYMCKECGKAFSQNSSL [R7N],3.38
18,RIHTGEDPYMCKECGKAFSQNSSL [R7D],3.36
19,RIHTGEAPYMCKECGKAFSQNSSL [R7A],2.6
20,RIHTGEIPYMCKECGKAFSQNSSL [R7I],2.6
21,RIHTGESPYMCKECGKAFSQNSSL [R7S],2.53
22,RIHTGEEPYMCKECGKAFSQNSSL [R7E],3.85
